For orientation: stoichiometry N means a count of units in the complex or per binding partner.

Experimental findings from publication PMC12847820, “Molecular characterisation of the Bacillus subtilis SpbK antiphage defence system” (Nature Communications, 2025) are described below.

Data set [1] addresses MBP-SpbK (full-length SpbK as a maltose-binding protein fusion) (Bacillus subtilis). In words: mass photometry + SEC-MALS; MBP-SpbK wild type and mutants in solution; 10 mM HEPES pH 7.5, 150 mM NaCl; Superdex 200 5/150 Increase for SEC-MALS; self-association. A general note: SEC sorts molecules by how far they enter the pores of the column.
In data set [2] the target is MBP-SpbK D158R (Bacillus subtilis). The data set is described as above.
Data set [3] concerns the target MBP-SpbK G194R (Bacillus subtilis). Described as above.
Data set [4] concerns the molecule itself. Nature of the data set: mass photometry; YonE in solution; 10 mM HEPES pH 7.5, 150 mM NaCl; self-association.

Turning to “MBP-SpbK (full-length SpbK as a maltose-binding protein fusion) (natural protein)”, the stoichiometry N in data set [1] was 2. As to MBP-SpbK D158R (natural protein), the stoichiometry N in data set [2] was found to be 2. On to MBP-SpbK G194R (natural protein), for which, in data set [3], the stoichiometry N came out at 2.

B1: YonE (residues 46-506), portal protein of phage SPβ (natural protein, Bacillus subtilis phage SPβ, UniProt O31953 46-506, looked up)
chain: EAEQLKNYFSNPDEFQEEIEDLAQYFYISTAEIHQLFELIEALPTLNYKIDSFNKVKSSDKHISLLNKSLHKVKHKRLTRDLLKQVATAGTLVGIWLGDAKSPYPFIFDEIKYVFPSFRRNGDWVCVVDMELFTKYKDDQRNELLKSLSPYIKQSDYENFMKDREKYRFKELPQERTFPLRTGTLKRNQGLGTSWVTPGLYDVLHKKKLKDVERSIANKIINAVAVLTIGTDKGNGEYTNMKLPKAVKQKIHGGVKTALEKNQKDGVTVVSIPDFADINFPDVKADGLDGAKFDHINSDIQSAYGLSGSLLNGDGGNYATSSLNLDTFYKRIGVLMEDIEQEVYQKLFNLVLPAAQKDNYYMNYDKDKPLTLKEKMDILIKLNDKGWSIKHVVDNLAGVSWESYLEQTLYETEELKLQEKIRPYQTSYTFTGNEVGRPNEGNKNNDNTVKSATSNGNDNPI
notes: YonE, product of the SPβ gene yonE, portal protein; truncated construct lacking the first 45 residues, residues 46-506; Dodecamer by mass photometry and cryo-EM; printed theoretical mass of the dodecamer 665 kDa; also called wild-type YonE; YonE dodecamer; source: E. coli BL21 (DE3), autoinduction, purified (IMAC, SEC); copies: 12
On to B1, for which the “stoichiometry N” value in data set [4] was 12.
